Measurements: patent US20200011878A1 (published 2020)
Substitutions are numbered along the chain they refer to. One block for each binder: values may come before it.

Molecular target: human NRP1 protein (human, UniProt O14786 22-856)
Assay: ELISA

Kd: 1110 nM
B1: 1A03 anti-NRP1 IgG antibody (antibody, V domains shown)
VH: EVQLLESGGGLVQFGGSLRLSQAASGFTFSSYYMSWVRQAFGKGLEWVSAISFGSSNKYYADSVQGRFTISRDNSKNTLYLQMNELRAEDTAVYYCARRKKSFDYWGQGTLVTVSS
VL: QSVLTQFFSASGTPGQRVTISCSGFSSNIGNNDVSWYQQLFGTAPKLLIYSCNNRPSGVPDRFSGSKSGTSASLAISGLRSSDEADYYCGAWVASLSAYVFGGGTKLTVTL

Kd: 426 nM
B2: IRCR-101 (3H10 converted into IgG format) (antibody, V domains shown)
VH: B1 VH with G15Q, G16Q, G26Q, F53P, Q65K, K101Y, S102M
VL: GSVLTQPPSASGTPGQRVTISCTGESSNIGNNDVYWYQQLPGTAFKLLIYSQSNRPSGMPDRFSGSKSGTSASLAISGLRSEDEADYYCASWDSSLSGYVFGGGTKLTVTL
